Experimental data published in patent US20170021005A1.

Biological target: PltB pentamer (B subunit of typhoid toxin, as in the crystal structure) (Salmonella enterica serovar Typhi)
Test: interface analysis of the crystal structure (computed)

PltA (subunit of typhoid toxin, as in the crystal structure) (enzyme)
buried surface: 1660 Å^2 | ΔiG (printed "ÅiG"): -17.7 kcal/mol
